From article PMC6803667 (Scientific Reports, 2019)
Several values for one entry are separate records, joined by “and”; a condition that tells them apart may be missing. Equal values may be shown once.

How the values were obtained:
Conditions in all cases: both partners purified
[1] = target: T1, second WW domain of human YAP2 (YAP-WW2) (human, UniProt P46937-2 228-271); experiment: ITC
T1 construct: also called hYAP-WW2; not shown: GST, N-terminal, cleaved; His tag, N-terminal, cleaved

[2] = target: T2, first WW domain of human YAP2 (YAP-WW1) (human, UniProt P46937-2 165-209); experiment: ITC
T2 construct: also called hYAP-WW1; not shown: GST, N-terminal, cleaved; His tag, N-terminal, cleaved

[3] = target: T3, third WW domain of human NEDD4 (hNEDD4-WW3), unlabelled (human, UniProt P46934 834-878); experiment: ITC
T3 construct: not shown: GST, N-terminal, cleaved; His tag, N-terminal, cleaved

[4] = target: T1, second WW domain of human YAP2 (YAP-WW2); experiment: other fluorescence titration; tryptophan fluorescence of the WW domain (20 uM), excitation 298 nm, centre of spectral mass against peptide concentration, one to one model; 20 mM sodium phosphate pH 7.0, 25 °C
[5] = target: T2, first WW domain of human YAP2 (YAP-WW1); experiment: as above
[6] = target: T1, second WW domain of human YAP2 (YAP-WW2); experiment: other fluorescence titration
[7] = target: T2, first WW domain of human YAP2 (YAP-WW1); experiment: other fluorescence titration

T2 sequence (P46937 165-209): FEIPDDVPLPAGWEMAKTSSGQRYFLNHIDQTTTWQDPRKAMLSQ
T1 sequence (P46937 228-271): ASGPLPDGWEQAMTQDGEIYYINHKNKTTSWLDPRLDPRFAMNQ
T3 sequence (P46934 834-878): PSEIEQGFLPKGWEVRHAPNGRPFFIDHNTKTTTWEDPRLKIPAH

**Q.** Which Kd [1] does the source give for Ac-EYPPYPPPPYPSG-NH2 [p53bp2 human peptide] here?
**A.** 12 ± 0.6 µM

**Q.** And the dH [1]?
**A.** -13.6 ± 0.239 kcal/mol

**Q.** What about the Kd [2] of the same binder?
**A.** 3 µM and 1.1 µM and 1.8 µM

**Q.** And the dH [2]?
**A.** -14.6 kcal/mol and -15.9 kcal/mol and -13.1 kcal/mol

**Q.** Which Kd [3] does the source give for SDPQIPPPYVEP [HTLV1 Late domain peptide] here?
**A.** 61 ± 1 µM

**Q.** What about the dH [3] of the same binder?
**A.** -16.3 ± 0.143 kcal/mol

**Q.** And the Kd [4]?
**A.** 260 ± 40 µM

**Q.** What about the Kd [5] of the same binder?
**A.** 308 ± 4 µM

**Q.** With ILPTAPPEYMEA [Ebola Late domain peptide] as the binder, how does the Kd [6] read?
**A.** 560 ± 30 µM

**Q.** What about the Kd [7] of the same binder?
**A.** 750 ± 10 µM

**Q.** What about the Kd [3] of the same binder?
**A.** 147 ± 4 µM

**Q.** What about the dH [3] of the same binder?
**A.** -12.1 ± 0.167 kcal/mol

**Q.** For MQYLNPPPYADH [Marburg Late domain peptide], which Kd [6] is on record?
**A.** 17 ± 1 µM

**Q.** And the Kd [7]?
**A.** 67 ± 4 µM

**Q.** What about the Kd [3] of the same binder?
**A.** 51 ± 1 µM

**Q.** And the dH [3]?
**A.** -17.5 ± 0.167 kcal/mol

**Q.** With DLWLPPPEYVPL [Rabies Late domain peptide] as the binder, how does the Kd [3] read?
**A.** 51 ± 1 µM

**Q.** What about the dH [3] of the same binder?
**A.** -15.7 ± 0.191 kcal/mol

**Q.** What about the Kd [2] of the same binder?
**A.** 181 ± 5 µM

**Q.** And the dH [2]?
**A.** -15.2 ± 0.215 kcal/mol

B1: HTLV1ter Late domain peptide (peptide)
peptide: Ac-PPPYVEPTAP-NH2
notes: source: synthetic peptide, bought: SynBioSci Corporation
**Q.** With B1 as the binder, how does the Kd [3] read?
**A.** 178 ± 3 µM

**Q.** And the dH [3]?
**A.** -17.7 ± 0.191 kcal/mol
